Source: patent US20260199504A1 (JIANGSU HENGRUI PHARMACEUTICALS, published 2026)
Each block holds one binder with its values, some of them ahead of it.

Tests used:
[1] = target: T1, human Nectin-4 on Nectin4-CHOK1 cells (CHO-K1 cell strain highly expressing Nectin-4) (human, UniProt Q96NY8 32-510); assay: cell-based or functional assay
T1 sequence: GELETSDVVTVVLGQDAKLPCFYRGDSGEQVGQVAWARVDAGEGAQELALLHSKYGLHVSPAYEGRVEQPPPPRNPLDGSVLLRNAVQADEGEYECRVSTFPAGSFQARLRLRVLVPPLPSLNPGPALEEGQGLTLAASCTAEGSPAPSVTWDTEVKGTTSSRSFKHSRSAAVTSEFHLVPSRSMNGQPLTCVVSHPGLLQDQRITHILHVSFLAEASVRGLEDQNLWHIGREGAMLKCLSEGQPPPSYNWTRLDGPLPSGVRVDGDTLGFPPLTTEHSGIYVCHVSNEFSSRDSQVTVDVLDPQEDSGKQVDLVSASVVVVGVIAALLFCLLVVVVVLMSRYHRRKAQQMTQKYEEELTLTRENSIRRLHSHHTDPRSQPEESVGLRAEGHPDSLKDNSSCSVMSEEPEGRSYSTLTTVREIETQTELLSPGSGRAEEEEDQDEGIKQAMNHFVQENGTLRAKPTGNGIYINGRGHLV

[2] = target: T2, Nectin-4 expressed on T47D and MDA-MB-468 human breast cancer cells (human, UniProt Q96NY8 32-510); assay: flow cytometry on MDA-MB-468 cells
T2 construct: whole, on cells; Nectin-4 native to the cell lines; also called Nectin-4-expressing cells
T2 sequence (looked up): T1 sequence
Experimental: (§1) After centrifugation and removal of the supernatant, the test antibody that was diluted with the FACS buffer to different concentrations was added at 50 μL/well. The plate was incubated in the dark in a 4° C. refrigerator for 1 h. The plate was washed 3 times with FACS buffer by centrifugation at 500 g, and Alexa Fluor 488 Goat anti-Human IgG (H+L) (invitrogen, A-11013) was then added in a working concentration. The plate was incubated in the dark in a 4° C. refrigerator for 40 min. The plate was washed 3 times with FACS buffer by centrifugation at 500 g and tested on a BD FACSCantoII flow cytometer for geometric mean fluorescence intensity, and the EC₅₀ values for the binding of the antibodies to Nectin-4-expressing cells were calculated.

[3] = target: T2, Nectin-4 expressed on T47D and …; assay: flow cytometry on T47D cells
Experimental: as §1

[4] = target: T1, human Nectin-4 on Nectin4-CHOK1 cells …; assay: flow cytometry on Nectin4-CHOK1 cells
Experimental: as §1

[5] = target: T3, human Nectin-4 His (Cat. #19771-H08H, Sino Biological) (human, UniProt Q96NY8 32-349); assay: SPR, Biacore T200; antibody captured on Protein A chip, human Nectin-4 His as analyte; 1:1 Langmuir model
T3 construct: Bought soluble antigen; the construct is probably only a part of it; also called human Nectin-4 His antigen; not shown: His tag
T3 sequence: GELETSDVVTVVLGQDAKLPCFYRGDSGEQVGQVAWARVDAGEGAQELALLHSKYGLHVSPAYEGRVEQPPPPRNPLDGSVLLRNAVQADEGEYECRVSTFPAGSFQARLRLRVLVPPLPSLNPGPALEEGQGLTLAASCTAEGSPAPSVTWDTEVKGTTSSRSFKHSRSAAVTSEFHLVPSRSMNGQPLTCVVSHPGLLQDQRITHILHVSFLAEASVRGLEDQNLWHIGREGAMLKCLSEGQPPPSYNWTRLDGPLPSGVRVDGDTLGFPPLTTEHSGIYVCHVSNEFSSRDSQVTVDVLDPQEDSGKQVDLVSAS
Experimental: The anti-Nectin-4 antibody was analyzed by Biacore T200 (GE) for characteristic affinity and binding kinetics. A Protein A biosensor chip (Cat. #29127556, GE) was used to affinity-capture IgG antibodies, and then the human Nectin-4 His (Cat. #19771-H08H, Sino Biological) antigen that was diluted with HBS-EP buffer (pH 7.4) (Cat. #BR-1001-88, GE) to a series of concentrations was allowed to flow over the surface of the chip. The antigen-antibody binding kinetics was tracked for 3 min and the dissociation kinetics was tracked for 10 min. Reaction signals were detected in real time using a Biacore T200 instrument to obtain binding and dissociation curves. After dissociation was complete in each cycle, the biosensor chip was washed with 10 mM Gly-HCl pH 1.5 (Cat. #BR-1003-54, GE) for regeneration. The data obtained were analyzed with BIAevaluation software of GE using a 1:1 (Langmuir) binding model.

IC50 (nM) (DT3C antibody endocytosis assay, Nectin4-CHOK1 cells) [1]: 0.5 nM
EC50 [2]: 0.23 nM
EC50 [3]: 0.26 nM
EC50 [4]: 0.94 nM
Kd [5]: 9.33 nM
koff [5]: 0.00661 s⁻¹
kon [5]: 709000 M⁻¹ s⁻¹
B1: EV201 (positive control antibody; antibody of enfortumab vedotin) (antibody, human IgG1, kappa, V domains shown)
VH: EVQLVESGGGLVQPGGSLRLSCAASGFTFSSYNMNWVRQAPGKGLEWVSYISSSSSTIYYADSVKGRFTISRDNAKNSLSLQMNSLRDEDTAVYYCARAYYYGMDVWGQGTTVTVSS
VL: DIQMTQSPSSVSASVGDRVTITCRASQGISGWLAWYQQKPGKAPKFLIYAASTLQSGVPSRFSGSGSGTDFTLTISSLQPEDFATYYCQQANSFPPTFGGGTKVEIKR
notes: also called control antibody EV201; control molecule

IC50 (nM) (DT3C antibody endocytosis assay, Nectin4-CHOK1 cells) [1]: 0.43 nM
EC50 [2]: 0.06 nM
EC50 [3]: 0.07 nM
EC50 [4]: 0.78 nM
Kd [5]: 5.15 nM
koff [5]: 0.00189 s⁻¹
kon [5]: 367000 M⁻¹ s⁻¹
B2: NEC49 (fully human-derived anti-Nectin-4 antibody) (antibody, V domains shown)
VH: EVQLLESGGGLVQPGGSLRLSCAASGFTFSSYAMSWVRQAPGKGLEWVSAIYSGGSTYYADSVKGRFTISRDNSKNTLYLQMNSLRAEDTAVYYCTRHGGDSGSWSYYYYGMDVWGQGTTVTVSS
VL: not shown
notes: also called antibody NEC49
